In PMC6071530:

Biological target: Recombinant human S100A4 (human) (UniProt P26447)
Experiment: SPR; BIAcore 2000; 2000 RU of recombinant human S100A4 immobilized covalently on a CM4 chip; soluble AR or NRG as analyte

Sequence of Recombinant human S100A4 (human) (P26447 whole entry): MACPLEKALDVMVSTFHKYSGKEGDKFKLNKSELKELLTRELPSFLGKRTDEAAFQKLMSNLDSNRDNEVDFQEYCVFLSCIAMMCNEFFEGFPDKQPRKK

Kd: 19.9 nM
Substance: Neuregulin 1 (from UniProt Q02297 20-241) (ligand)
